For one substance, signal of co-precipitated protein (relative, %) results are on record in paper PMC12145851.

For assay [1], the target named is phospholamban (PLN) (mouse (endogenous in mouse heart)) (UniProt P61014). The assay is described as follows: co-IP; PLN antibody immunoprecipitation from unfixed mouse cardiac tissue lysate (IP group), immunoblot of co-precipitated proteins. For orientation: In western blotting, separated proteins are transferred to a membrane and probed.
Assay [2] shares this target. The assay is described as follows: co-IP; PLN antibody immunoprecipitation from 3 % glyoxal-fixed (cross-linked) mouse cardiac tissue lysate (xIP group), immunoblot of co-precipitated proteins.

Chain of UniProt P61014 (P61014 whole entry): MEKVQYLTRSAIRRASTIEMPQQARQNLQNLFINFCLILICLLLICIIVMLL

For “integrin beta-1 (ITGB1) (from UniProt P09055 21-798) (natural protein)”, the signal of co-precipitated protein (relative, %) in assay [1] amounted to 100%; in assay [2], 282%.
